Measurements: US20240226230A1

Biological target: phenylalanine and glycine rich nucleoporins (FG-Nups)
Test: cell-based or functional assay

## FLAG-KPNB1 H1-8^WT (from UniProt Q14974 1-361)
  cells in which the accumulation of TDP-43 and Nup62 in cytoplasmic GR aggregates is abolished: 60 % of cells
